Results: patent US11479601B2, “Antibodies specific to Sonic Hedgehog and method of use thereof” (The Regents of the University of California, priority 2016, dated 2022)

What was measured:
[1] = test system: Shh protein; assay: Ex vivo Shh staining of excised A549 xenograft tumors; assay type: in vivo, mice
Description: The in vivo effect of the C-terminal Shh antibodies were tested using the A549 cell subcutaneous xenograft tumor model in mice, as described in Example 1. After xenograft formation, animals were intra-tumor injected with a C terminal Shh antibody (2G4 or 2D9; each at 158 μg), or a control solution, 3 times a week for about 3 weeks (at 2-3 day intervals). Tumor volume was determined, as described in Example 1, every 2 days. Weight and size of the excised tumor were determined after the antibody treatment. A portion of the excised tumor was sectioned for immunohistochemical analysis of Shh protein expression, and RNA was extracted from another portion of the excised tumor for analysis of Gli1 expression.
Control IgG and Ab 1C11-2G4-treated A549 tumors harvested from mice were sectioned ([…]) and stained with a commercially available Sonic Hedgehog (Shh) antibody (Abcam 53281, 1:100) post acetone fixation, 0.2% Triton-X 100 permeabilization and serum blocking steps. A FITC-conjugated secondary antibody (1:1000) and […] DAPI (Vector Laboratories) mounting medium were used to stain sections prior to imaging at 20× magnification using a Zeiss Axiolmager 2 fluorescence microscope. Captured images were processed via ImageJ software (available at https://imagej.nih.gov/ij/download.html) and representative images are presented.
To assess the effects of antibody administration on hedgehog epitope occupancy, tumors were sectioned and stained with a commercial antibody specific for sonic hedgehog (Shh). […] Confirmatory results were observed when ground up permeabilized tumor cells were labeled with the commercially available Shh antibody and assessed using flow cytometry; 1C11-2G4-treated tumors (20%-Shh-labeled) contrasted with IgG controls (80%-Shh-labeled) (FIG. 46B).

[2] = test system: NSCLC A549 cells; assay: CellTiter-Glo cell viability assay, A549; assay type: cell-based, human; details: 96 hours, compared with controls
Description: Logarithmically growing cells were plated in antibiotic-free medium supplemented with 2% fetal bovine serum at a density of 5,000 cells per well in clear-bottom 96-well plates. The next day cells were treated (triplicates) with increasing doses of in-house therapeutic antibodies (reconstituted in PBS) or PBS controls for 96 hours and subsequently assessed for cell viability by measuring ATP content with CellTiter-Glo Luminescent Cell Viability Assay (Promega). Signal intensity was measured on a Glomax™ 96 Microplate Luminometer (Promega) and percent cell survival was calculated based on the reading of PBS control cells set as 100%.

[3] = molecular target: T1, full-length Shh polypeptide (Homo sapiens, UniProt Q15465); assay: Flow cytometry: binding of C-terminal Shh antibodies to full-length Shh expressed in transfected cells; details: antibody at 1:10 (Commercial at 1:50)
T1 construct: Expression of full-length Shh polypeptide in transfected cells; expressed in transfected cells; pCMV-Shh plasmid (Origene)
Description: FACS (1:40). The secondary antibody was a donkey anti-mouse FITC-linked antibody (ab97029, 1:100, Abcam). For cell analysis after treatment assays (chemotherapy or GDC0449), a dead cell marker (SytoxRed, Invitrogen) was also used. For human fresh samples, an anti-CD45 APC-linked antibody (ab28106, 1:100, Abcam), and a dead cells marker (SytoxRed, Invitrogen) were added. For staining of stable transfected cell lines, mouse anti-HA antibody (Abcam, 1:100) and rabbit anti-FLAG antibody (Cell Signaling; 1:400) were used. Corresponding secondary antibodies were donkey anti-mouse AlexaFluor647 (Invitrogen, 1:1000) and donkey anti-rabbit AlexFluor594 (Invitrogen, 1:1000) antibodies. Flow cytometry analyses were performed on AccuriC6 flow cytometer (BD Biosciences), and FACS on FACSAria II (BD Biosciences). Flow analyses were based at least on 200,000 cells, and each test was made at least in triplicate. For all experiments, a negative control with cells processed without primary antibody was used. […]
Expression of full-length Shh polypeptide in transfected cells increased the percentage of cells labeled with the Shh antibodies produced by two of the subclones (2D9 and 2G4) identified after the screening, compared to the percentage of untransfected cells labeled by the same antibodies, as measured by flow cytometry (Table 3).

[4] = test system: A549 cells; assay: Viability of A549 cells treated with Shh antibodies ± GLI inhibitor 249C; assay type: cell-based, human; details: for Cell viability of A549 cells: 249C at 40 nM where added
Description: The effect of the C-terminal Shh antibodies from clones 2G4 and 2D9 on the viability of A549 cells was determined. A549 cells were exposed to increasing concentrations of the C-terminal Shh antibodies (2G4, 2D9), or antibodies against the N-terminal portion of Shh protein (6D3, 2E1), and the effective dose (ED50) was determined (assay 1: FIG. 16A; assay 2: FIG. 16B). […] Possibly due to the fact that very few cells express full-length Shh on the cell surface, the cytotoxic effect of the C-terminal Shh antibodies was not as potent as the cytotoxic effect of the N-terminal antibodies.
Next, the cytotoxicity of the C-terminal Shh antibodies was tested when the antibodies were used in conjunction with a small-molecule inhibitor of GLI zinc-finger transcription factor signaling, 249C (4-(5-chlorofuran-2-yl)-1,3-bis(2,4-difluorophenyl)-5-methyl-N-((4-methylmorpholin-2-yl)methyl)-4,5-dihydro-1H-pyrazole-5-carboxamide; Compound 135 above). A549 cells were exposed to varying concentrations of the C-terminal antibodies (2G4, 2D9) or the N-terminal antibodies (6D3, 2E1), in the presence or absence of a very low dose (40 nM) of 249C. (The IC50 of 249C in A549 cells is ˜70 nM.)

[5] = test system: Shh 247-264 AA and Shh 448-462 AA peptides; assay: Biolayer interferometry (Octet RED 384) with Shh peptide-mimic ligands; assay type: binding, human; details: 37-3000 nM peptides; versus IgG control antibody
Description: Antibody immobilization was checked via Octet® Software (ForteBio) prior to introduction of increasing concentrations (37, 111, 333, 1000, 3000 nM) of Sonic Hedgehog peptide-mimic ligands (Shh 247-264 AA and Shh 448-462 AA). Graphical output from the Octet® Software of representative data from two independent experiments is presented.

percentage of cells labeled with the Shh antibody (flow cytometry) ([3]; +SHh Full-Length transfection): 2.24% | percentage of cells labeled with the Shh antibody (flow cytometry) ([3]; No transfection): 0.17% | binding response to Shh peptide-mimic ligands (BLI) [5]: increases in binding response
B1: 2G4: purified mouse monoclonal C-terminal Shh antibody from hybridoma sub-clone 2G4 of clone 1C11, IgG1 kappa (antibody, V domains shown)
VH: EVKLVESGGGLVKPGGSLKLSCAASGFTFSSYTMSWVRQTPAKRLEWVATISSGGGNTYYPDSVKGRFTISRDNARNTLYLQMSSLRSEDTAMYYCARDYRSLFAYWGQGTLVTVSA
VL: QIVLTQSPAIMSASPGEKVTITCSASSSVSYMHWFQQKPGTSPKLWIYSTSNLASGVPARFSGSGSGTSYSLTISRMEAEDAATYYCQQRSSYPFTFGSGTKLEIK
cells expressing Shh protein in excised tumor (immunostaining) ([1]; intra-tumor antibody 158 μg, compared to control tumor samples): fewer cells expressing Shh protein | number of Shh-labeled cells in permeabilized tumor sections (immunofluorescence) ([1]; tumors after 8 mg/kg treatment, versus IgG controls): significant reduction in the number of Shh-labeled cells | Shh-labeled cells in ground up permeabilized tumor cells (flow cytometry, commercial Shh antibody) ([1]; tumors after 8 mg/kg treatment, IgG controls 80%): 20% | A549 tumor cell proliferation / cell viability [2]: marginally stronger anti-proliferative capacity | Cell viability of A549 cells ([4]; Ab conc. 32 ng/mL): 99% | Cell viability of A549 cells ([4]; Ab conc. 64 ng/mL): 95% | Cell viability of A549 cells ([4]; Ab conc. 128 ng/mL): 91% | synergy with a GLI inhibitor in reducing viability of non-small cell lung cancer cells ([4]; with 249C at 40 nM): act synergistically
